Experimental data taken from article PMC9606859, “Chemical Synthesis of Trans 8-Methyl-6-Nonenoyl-CoA and Functional Expression Unravel Capsaicin Synthase Activity Encoded by the Pun1 Locus” (Molecules, 2022).

Substrate: CC(C)/C=C/CCCCC(=O)SCCNC(=O)CCNC(=O)[C@H](O)C(C)(C)COP(=O)(O)OP(=O)(O)OC[C@H]1O[C@@H](n2cnc3c(N)ncnc32)[C@H](O)[C@@H]1OP(=O)(O)O
Test: HPLC/MS capsaicin formation
Assay type: biochemical, Capsicum chinense
Settings: co-substrate vanilloylamine (saturating per Figure S3), 50 mM TRIS/HCl pH 7.5, 150 mM NaCl, 10% glycerol, 1 mM TCEP, partly purified enzyme, single measurement, three technical replicates

B1: recombinant capsaicin synthase (AT3, Pun1) (Capsicum chinense) (protein)
chain: MAFALPSSLVSVCDKSFIKPSSLTPSTLRFHKLSFIDQSLSNMYIPCAFFYPKVQQRLEDSKNSDELSHIAHLLQTSLSQTLVSYYPYAGKLKDNATVDCNDMGAEFLSVRIKCSMSEILDHPHASLAESIVLPKDLPWANNCEGGNLLVVQVSKFDCGGIAISVCFSHKIGDGCSLLNFLNDWSSVTRDHTTTTLVPSPRFVGDSVFSTKTYGSLTTPQILSDLNECVQKRLIFPTDKLDALRAKVAEESGVKNPTRAEVVSALLFKCATKASSSMLPSKLVHFLNIRTMIKPRLPRNTIGNLSSIFSIEATNMQDMELPTLVRNLRKEVEVAYKKDQVEQNELILEVVESMREGKLPFENMDGYENVYTCSNLCKYPYYTVDFGWGRPERVCLGNGPSKNAFFLKDYKAGQGVEARVMLHKQQMSEFERNEELLEFIA
notes: full length, codon-optimized 1332 bp NdeI/XhoI fragment in pET-16b, His-tag (2 kDa) kept; E. coli SoluBL21; partly purified (Ni-NTA, SEC); monomer
- Km: 480 ± 240 µM
